Assay results as given in patent US7799901B2, “Modulators of the function of FAS receptors and other proteins” (Yeda Research and Development Co. Ltd., priority 1995, dated 2010).

T1: FAS-IC (Homo sapiens, UniProt P25445)
T1 construct: the FAS-IC extends-from amino acid residues 175-319 of the intact FAS-R; expressed in transfected cells; host or cells: SFY526 yeast
T1 sequence (P25445 191-335): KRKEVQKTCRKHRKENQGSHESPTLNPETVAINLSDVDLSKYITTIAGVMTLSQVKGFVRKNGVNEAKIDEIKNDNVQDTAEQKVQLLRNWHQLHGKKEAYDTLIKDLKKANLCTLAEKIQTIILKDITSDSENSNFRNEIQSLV

T2: FAS-IC with replacement mutations at position 225 (Ile) (Mus musculus, UniProt P25446, I246A)
T2 construct: four constructs of the mouse Fas-IC including two full-length constructs; expressed in transfected cells; host or cells: SFY526 yeast
T2 sequence (P25446 187-327 I246A): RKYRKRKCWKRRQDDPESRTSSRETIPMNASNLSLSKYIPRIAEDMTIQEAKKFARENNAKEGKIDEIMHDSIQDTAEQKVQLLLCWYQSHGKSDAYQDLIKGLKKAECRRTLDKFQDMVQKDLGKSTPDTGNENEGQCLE

B1: MORT-1: Mediator of Receptor-induced Toxicity; protein binding the intracellular domain of FAS-R, SEQ ID NO:2 (protein)
chain: VNQAPECRFGGGILGPLGKRRDLARASEPRTEGARRAGPQPRPLADPAMDPFLVLLHSVSSSLSSSELTELKFLCLGRVVKRKLERVQSGLDLFSMLLEQNDLEPGHTELLRELLASLRRHDLLRRVDDFEAGAAAGAAPGEEDLCAAFNVICDNVGKDWRRLARQLKVSDTKIDSIEDRYPRNLTERVRESLRIWKNTEKENATVAHLVGALRSCQMNLVADLVQEVQQARDLQNRSGAMSPMSWNSDASTSEAS
B2: MACHα1 (C360S): MACHα1 mutant in which the catalytic cysteine Cys360 is replaced by Ser (protein)
chain: MDFSRNLYDIGEQLDSEDLASLKFLSLDYIPQRKQEPIKDALMLFQRLQEKRMLEESNLSFLKELLFRINRLDLLITYLNTRKEEMERELQTPGRAQISAYRVMLYQISEEVSRSELRSFKFLLQEEISKCKLDDDMNLLDIFIEMEKRVILGEGKLDILKRVCAQINKSLLKIINDYEEFSKERSSSLEGSPDEFSNGEELCGVMTISDSPREQDSESQTLDKVYQMKSKPRGYCLIINNHNFAKAREKVPKLHSIRDRNGTHLDAGALTTTFEELHFEIKPHDDCTVEQIYEILKIYQLMDHSNMDCFICCILSHGDKGIIYGTDGQEAPIYELTSQFTGLKCPSLAGKPKVFFIQASQGDNYQKGIPVETDSEEQPYLEMDLSSPQTRYIPDEADFLLGMATVNNCVSYRNPAEGTWYIQSLCQSLRERCPRGDDILTILTEVNYEVSNKDDKKNMGKQMPQPTFTLRKKLVFPSD

What was measured:
FAS-IC = target: T1, FAS-IC; assay: Two-hybrid test of MORT-1 binding (FIG. 1), human Fas-IC; settings: transfected SFY526 yeasts
Text: (§1) To isolate proteins interacting with the intracellular domain of the FAS-R, the yeast two-hybrid system was used (Fields and Song, 1989). […] In this system, the genes for the candidate interacting proteins are cloned into separate expression vectors. In one expression vector, the sequence of the one candidate protein is cloned in phase with the sequence of the GAL4 DNA-binding domain to generate a hybrid protein with the GAL4 DNA-binding-domain, and in the other vector, the sequence of the second candidate protein is cloned in phase with the sequence of the GAL4 activation domain to generate a hybrid protein with the GAL4-activation domain. The two hybrid vectors are then co-transformed into a yeast host strain having a lacZ or HIS3 reporter gene under the control of upstream GAL4 binding sites. Only those transformed host cells (cotransformants) in which the two hybrid proteins are expressed and are capable of interacting with each other, will be capable of expressing the reporter gene. In the case of the lacZ reporter gene, host cells expressing this gene will become blue in color when X-gal is added to the cultures. […]
(§2) In FIG. 1, there is depicted the interaction of the proteins encoded by the Gal4 DNA binding domain and activation-domain constructs (pGBT9 and pGAD-GH) within transfected SFY526 yeasts as assessed by β-galactosidase expression filter assay. […]

[1] = target: T2, FAS-IC with replacement mutations at position 225 (Ile); assay: Two-hybrid test of MORT-1 binding (FIG. 1), FAS-IC mutated at position 225; settings: lpr^eg mutation site
Text: as §1, §2

[2] = test system: Fas/APO1-induced death of HeLa cells; assay: Death of HeLa cells expressing Fas/APO1 induced by anti-Fas/APO1 antibody and cycloheximide; type: cell-based, human; settings: HeLa cells transiently expressing Fas/APO1; CH11 0.5 μg/ml, cycloheximide 10 μg/ml
Method: In brief, 293-EBNA cells, MCF7 human breast carcinoma cells and HeLa HtTA-1 cells were grown in Dulbecco's modified Eagle's minimal essential medium supplemented with 10% fetal calf serum, nonessential amino acids, 100 U/ml penicillin and 100 μg/ml streptomycin. Cell tissue culture dishes (5×10^5 293-EBNA cells, 3×10^5 s MCF7 cells or 3×10^5 HeLa cells in 6-cm dishes) were transiently transfected, using the calcium phosphate precipitation method, with the cDNAs of the indicated proteins together with the β-galactosidase expression vector. In the experiments presented in FIGS. 14A-D and 15, each dish was transfected with 3.5 μg of the indicated MACH construct and 1.5 μg of pSV-β-gal. In the experiments presented in FIGS. 16A-D and 17-19, each dish was transfected with 2.5 μg of the indicated MACH or MORT1 construct (or, as control, empty vector) and 1.5 μg of pSV-β-gal. The cells were rinsed 6 to 10 h after transfection. The 293-EBNA and MCF7 cells were incubated for a further 18 h without additional treatment. The HeLa cells were incubated for 26 h after transfection and-then for 5 h in the presence of either anti-Fas.APO1 antibody (CH11, 0.5 μg/ml) or TNF (100 ng/ml), together with cycloheximide (10 μg/ml). The extent of cell death at the end of the incubation periods was assessed by determination of β-galactosidase expression, as described by Kumar et al, 1994.
The HeLa cells were made responsive to Fas/APO1 by transient expression of this receptor. […] These protective effects indicate that MACHα is a necessary component of both the Fas/APO1- and the p55-R-induced signaling cascades for cell death.
In particular, FIGS. 16A-D show morphology of 293-EBNA cells in which cell death was induced by transient expression of a chimera comprised of the extracellular domain of the p55-R (amino acids 1-168) fused to the transmembrane and intracellular domains of Fas/APO1 (amino acids 153-319) (p55-Fas chimera) (FIGS. 16A and 16B), or by expression of the p55-R (FIGS. 16C and 16D), and of cells that were protected from these cytotoxic effects by their simultaneous transfection with MACHα1 (C360S) (FIGS. 16B and 16D). Photographs were taken 26 h after transfection. FIG. 17 illustrates the quantification of death induced in 293-EBNA cells by their transfection with p55-Fas chimera or with p55-R, together with an empty vector, a MORT1 deletion mutant lacking the MACH-binding region (MORT1 (92-208)), or MACHα molecules containing a nonfunctional CED3/ICE region. […] Data are from at least two independent experiments and are expressed as in FIGS. 14A-F and 15.

| Molecule | binding to human Fas-IC in two-hybrid test (FAS-IC) | binding to FAS-IC with replacement mutation at position 225 [1] | protection against death induced by anti-Fas/APO1 antibody and cycloheximide [2] |
| --- | --- | --- | --- |
| B1 | binds | prevents binding | – |
| B2 | – | – | prevention |
